Reference: patent publication US20110287023A1 (AstraZeneca / MedImmune, published 2011)
Numbering of substitutions follows the chain as printed.

B1: human anti-HMG1 antibody G4 (antibody, IgG1, V domains shown)
VH: EVQLLESGGGLVQPGGSLRLSCAASGFTFSWYDMTWVRQAPGKGLEWVSSISPSGGYTKYADSVKGRFTISRDNSKNTLYLQMNSLRAEDTAVYYCTTEFYDYLDVWGKGTTVTVSS
VL: DIQMTQSPGTLSLSPGEGATLSCRASQSVSSTYLAWYQQKPGQAPRLLIYEASKRATGTPARFSGSGSGTDFTLSISSLEPEDFAVYYCQHRHNWPPQWTFGQGTKVEVK
notes: full length IgG1 made from a human Fab phage clone; also called ATCC PTA-6258
B2: human anti-HMG1 antibody E11 (antibody, IgG1, V domains shown)
VH: EVQLLESGGGLVQPGGSLRLSCAASGFTFSRYQMNWVRQAPGKGLEWVSSISPSGGHTHYADSVKGRFTISRDNSKNTLYLQMNSLRAEDTAVYYCAKDGRQGKISTVDHWGQGTLVTVSS
VL: DIQMTQSPGTLSLSPGERATLSCRASQSVRSNFLAWYQQKPGQAPRLLIYGASRRASGIPDRFSGSGFGADFTLSISRLEPEDFAVYYCQQYGSSPNTFGQGSRVEIK
notes: full length IgG1 made from a human Fab phage clone

Legend:
[1] = target: T1, native nuclear HMG1 from freeze-thawed 293H cells (human, UniProt P09429 1-215); assay: sandwich ELISA: antibody titrated and captured on anti-human IgG Fc, native nuclear HMG1 at 0.7 ug/ml, mouse anti-HMGB1 and anti-mouse IgG-HRP, OD 450
T1 construct: unpurified cell supernatant
T1 sequence (looked up): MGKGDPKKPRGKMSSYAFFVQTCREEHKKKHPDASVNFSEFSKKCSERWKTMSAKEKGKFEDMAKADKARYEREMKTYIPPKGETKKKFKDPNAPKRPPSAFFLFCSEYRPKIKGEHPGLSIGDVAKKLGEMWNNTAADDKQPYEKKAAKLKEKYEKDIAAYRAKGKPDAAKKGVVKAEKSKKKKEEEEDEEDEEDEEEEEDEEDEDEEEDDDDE
Experimental: (§1) Sandwich ELISA (soluble HMG1): Immunoplates (EIA/RIA plate, High binding, Costar) were coated with anti human IgG Fc at 10 μg/ml in PBS (pH 7.2) and incubated at 4° C. overnight. The coating reagent was removed and the plates were rinsed briefly with PBS. The plates were then blocked with 4% milk for 1 hour at 37° C. and rinsed with PBS. The anti-HMG1 antibodies were diluted in 4% milk. For serial dilutions, the antibodies were used at a starting concentration of 20 μg/ml. The diluted anti-HMG1 antibodies were then added into plate and incubated for 1 hr at 37° C. The plate was then washed 10 times with PBST (PBS/0.1% tween 20) and incubate with antigen (HMGB1, 2 μg/ml; or 0.7 μg/ml for native HMGB1) in 4% milk and incubated at 37° C. for 1 h. The plate was then wash 10 times and incubated with mouse anti-HMGB1, 1 μg/ml in 4% milk at 37° C. for 1 h. The plate was washed 10 times and incubated with anti-mouse IgG-HRP at 1:1000 at 37° C. for 1 h. The plate was then washed and developed. HRP activity was detected with Sureblue HRP substrate (KPL). Plates were read at 450 nm using a Kinetic Microplate Reader (Molecular Devices).

[2] = target: T2, recombinant rat HMGB-1 labelled with europium (rat, UniProt P63159 1-215, limits assumed, Eu label, molar ratio HMGB-1 to Eu 1:5); assay: inhibition of binding of 2 nM Eu-labelled recombinant rat HMGB-1 to THP-1 cells
T2 construct: also called Europium-labeled HMGB-1
T2 sequence (looked up): T1 sequence (looked up) with E189D, D202E
Experimental: HMG1 binding to THP-1 Cells: Recombinant rat HMGB-1 was labeled using Eu-labelling Kit from PerkinElmer. Molar ratio of HMGB-1 to Eu is 1:5. THP-1 were cultured as the protocol from ATCC. Cells were harvested and suspended at concentration 1×10⁶/ml in assay buffer containing 1×DELFIA L*R binding buffer (PerkinElmer), 50% of DELFIA stabilizer (PerkinElmer) and 0.05% of sodium azide. 100 μl of cells (1×10⁵) was added into wells in 96 well cell culture plate. The plate was incubated with gentle shaking at 4° C. for one hour. 100 μl of assay buffer containing 2 nM of Europium-labeled HMGB-1 mixed with various concentrations (333, 166.5, 83.25, 41.6, 20.8, 10.4 and 5.2 nM) of human anti-HMGB1 antibodies E11 or G2 or soluble human RAGE-Fc, were added into each wells respectively. After one hour incubation with gentle shaking at 4° C., the cells were washed four times with 1×L*R wash buffer (PerkinElmer) by centrifuging at 1200 rpm×5 min. 200 μl of enhancement solution was added into each well to dissociate and enhance Eu fluorescence at 615 nm. The fluorescence was measured with Wallac Victor Fluorometer. Assay was performed in triplicate and human antibody R3-47 was used the negative isotype control.

[3] = target: T3, recombinant HMG1 produced in E. coli as a calmodulin binding protein (CBP) fusion (human); assay: sandwich ELISA, captured antibody and soluble HMG1, OD 450
T3 construct: also called rHMG1; rHMGB1
Experimental: as §1

Binder | binding result [1] | IC50 [2] | EC50 (read off the curve) [3]
B1 | binds |  | 
B2 |  | 48.1 nM | ~0.4 µg/mL
